According to patent US20220193237A1 (Bristol-Myers Squibb, published 2022):
Numbering of substitutions follows the chain as printed. One block for each binder: values may come before it.

Assays:
[1] = target: T1, human CTLA-4 on 58 α-β-CTLA-4/CD3 ζ cells (human; mouse (mCD3ζ)); test: cell-based or functional assay
[2] = target: T1, human CTLA-4 on 58 α-β-CTLA-4/CD3 ζ …; test: cell-based or functional assay; remark: listed apart in the source
[3] = target: T1, human CTLA-4 on 58 α-β-CTLA-4/CD3 ζ …; test: flow cytometry, non-fucosylated IgG1 on 58αβ-CTLA4/mCD3ζ cells, pH 6.2
Method: (§1) Antibodies were titrated from 100 μg/mL at a 1:4 dilution across 12 points in pH-specific buffers and incubated for 30-60 minutes. Buffers contained HBSS, 2% FBS^HI, 0.02% sodium azide, 2 mM EDTA, and sodium phosphate buffer (pH 5.4). Sodium phosphate buffer was added until desired pH was reached (7.2, 6.7, 6.2). Approximately 3e5 cells/well were tested for each cell line. […] Detection was done with a monovalent anti-hKappa secondary nanobody conjugated to Alexa647 and used at a dilution of 1:2000. Cells were fixed with BD Fix Solution I for 30 minutes prior to resuspension in pH-specific buffers and reading on the cytometer (BD Fortessa).

[4] = target: T1, human CTLA-4 on 58 α-β-CTLA-4/CD3 ζ …; test: flow cytometry, non-fucosylated IgG1 on 58αβ-CTLA4/mCD3ζ cells, pH 6.7
Method: as §1

[5] = target: T1, human CTLA-4 on 58 α-β-CTLA-4/CD3 ζ …; test: flow cytometry, non-fucosylated IgG1 on 58αβ-CTLA4/mCD3ζ cells, pH 7.2
Method: as §1

[6] = target: T2, monomeric human CTLA-4 (human, UniProt P16410 36-161, limits assumed); test: SPR, captured Fab, pH 6.0
T2 construct: Soluble monomeric analyte in SPR; also called huCTLA-4
T2 sequence: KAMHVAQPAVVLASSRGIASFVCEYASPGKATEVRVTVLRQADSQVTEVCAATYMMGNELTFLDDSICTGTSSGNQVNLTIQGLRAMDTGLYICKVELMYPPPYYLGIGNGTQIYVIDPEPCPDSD
Method: (§2) Binding of selected variants to human CTLA-4 was determined essentially as described in Example 3. […] Nomenclature and sequences for these antibodies is provided at Tables 6 and 7, and in the sequence listing as summarized at Table 8.
(§3) Monomeric human CTLA-4 was flowed as analyte with up to 2 μM top concentration. Between cycles, the capture surface was regenerated with 75 mM phosphoric acid. Experiments were run on a BIACORE® T200 instrument at 37° C. Running buffers were HEPES buffered saline for pH 7.4 experiments and Bis-Tris buffered saline for lower pH experiments. […] Double referenced sensorgrams were fitted to a 1:1 Langmuir binding model with mass transport to determine equilibrium dissociation constants (KD), as well as association (kₐ) and dissociation (kd) rate constants where appropriate.

[7] = target: T2, monomeric human CTLA-4; test: SPR, captured Fab, pH 7.4
Method: as §2, §3

[8] = target: T2, monomeric human CTLA-4; test: SPR, captured Fab, pH 6.0 vs 7.4
Method: as §2, §3

[9] = target: T2, monomeric human CTLA-4; test: SPR, captured Fab, second experiment of Table 3
Method: (§4) See Example 3. Antibodies were tested as monovalent Fab fragments to simplify analysis.
as §3

[10] = target: T2, monomeric human CTLA-4; test: SPR, captured Fab, pH 6.0, second experiment
Method: as §4, §3

[11] = target: T2, monomeric human CTLA-4; test: SPR, captured Fab, pH 7.4, second experiment
Method: as §4, §3

[12] = target: T2, monomeric human CTLA-4; test: SPR, captured Fab, pH 6.0 vs 7.4, second experiment
Method: as §4, §3

B1: ipi.105, non-fucosylated IgG1 (antibody, V domains shown)
VH: QVQLVESGGGVVQPGRSLRLSCAASGFTFSHYTMHWVRQAPGKGLEWVTFISYDGHNKYYADSVKGRFTISRDNSKNTLYLQMNSLRAEDTAIYYCARTGWLGPFDYWGQGTLVTVSS
VL: EIVLTQSPGTLSLSPGERATLSCRASQEVGESELAWYQQKPGQAPRLLIYGAFSRATGIPDRFSGSGSGTDFTLTISRLEPEDFAVYYCQQYGSSPWTFGQGTKVEIKR
modifications: non-fucosylated N-linked glycan
notes: Non-fucosylated full-length human IgG1; also called Ipi.105 IgG1-NF
IC50 (read off the curve), mIL-2 secretion, 58αβ-hCTLA/mCD3ζ:rhB7-1 blocking assay, 18 h, pH 7.0 [1]: ~4 nM
IC50 (read off the curve), mIL-2 secretion, 58αβ-hCTLA/mCD3ζ:rhB7-1 blocking assay, 18 h, pH 6.8 [2]: ~2 nM
Cmax (MFI) [3]: 107000 MFI
EC50 [3]: 2.6 nM
Cmax (MFI) [4]: 110000 MFI
EC50 [4]: 3.45 nM
Cmax (MFI) [5]: 107000 MFI
EC50 [5]: 3.94 nM

B2: ipi.7 Fab (Fab, V domains shown)
VH: B1 VH with H31S, T33H, H56N, N57H
VL: not shown
notes: Tested as monovalent Fab
Kd [6]: 1.7 nM
kon [6]: 1.2e+06 M⁻¹ s⁻¹
t1/2 [6]: 347 s
Kd [7]: 1.5 nM
kon [7]: 1e+06 M⁻¹ s⁻¹
t1/2 [7]: 462 s
KD 7.4/6 (APBP) [8]: 0.8
ka 6/7.4 [8]: 1.1
t1/2 6/7.4 [8]: 0.7

B3: ipi.20 Fab (Fab, V domains shown)
VH: B1 VH with H31S, H56N
VL: not shown
notes: Tested as monovalent Fab
Kd [6]: 32 nM
kon [6]: 1.6e+06 M⁻¹ s⁻¹
t1/2 [6]: 14 s
Kd [7]: 84 nM
kon [7]: 790000 M⁻¹ s⁻¹
t1/2 [7]: 11 s
KD 7.4/6 (APBP) [8]: 2.6
ka 6/7.4 [8]: 2
t1/2 6/7.4 [8]: 1.3

B4: ipi.93 Fab (Fab, V domains shown)
VH: B1 VH with H31S, H56N
VL: B1 VL with E31D
notes: Tested as monovalent Fab
Kd [6]: 13 nM
kon [6]: 1.7e+06 M⁻¹ s⁻¹
t1/2 [6]: 32 s
Kd [7]: 210 nM
KD 7.4/6 (APBP) [8]: 16

B7: ipi.82 Fab (Fab, V domains shown)
VH: B1 VH with H56N, T99H
VL: not shown
notes: Tested as monovalent Fab
Kd [6]: 31 nM
kon [6]: 1.4e+06 M⁻¹ s⁻¹
t1/2 [6]: 16 s
Kd [7]: 130 nM
KD 7.4/6 (APBP) [8]: 4.4

B9: ipi.26 Fab (Fab, V domains shown)
VH: B1 VH with H31S, H56N
VL: not shown
notes: Tested as monovalent Fab
ratio of KD (7.4/6.0) normalized to the ratio of ipilimumab [9]: 4.3
Kd [10]: 8.9 nM
koff [10]: 0.007 s⁻¹
kon [10]: 790000 M⁻¹ s⁻¹
Kd [11]: 30 nM
koff [11]: 0.012 s⁻¹
kon [11]: 410000 M⁻¹ s⁻¹
KD 7.4/6 (APBP) [12]: 3.4
ka 6/7.4 [12]: 2
kd 7.4/6 [12]: 1.7

B12: ipi.84 Fab (Fab, V domains shown)
VH: B1 VH with T99H
VL: not shown
notes: Tested as monovalent Fab
Kd [6]: 16 nM
kon [6]: 1.3e+06 M⁻¹ s⁻¹
t1/2 [6]: 35 s
Kd [7]: 120 nM
KD 7.4/6 (APBP) [8]: 7.7

B14: ipi.66 Fab (Fab, V domains shown)
VH: B1 VH with H31S
VL: not shown
notes: Tested as monovalent Fab
Kd [6]: 3.5 nM
kon [6]: 1.2e+06 M⁻¹ s⁻¹
t1/2 [6]: 161 s
Kd [7]: 26 nM
kon [7]: 700000 M⁻¹ s⁻¹
t1/2 [7]: 36 s
KD 7.4/6 (APBP) [8]: 7.6
ka 6/7.4 [8]: 1.8
t1/2 6/7.4 [8]: 4.3

B15: ipi.95 Fab (Fab, V domains shown)
VH: B1 VH
VL: B1 VL with E31D
notes: Tested as monovalent Fab
Kd [6]: 2.8 nM
kon [6]: 1.9e+06 M⁻¹ s⁻¹
t1/2 [6]: 126 s
Kd [7]: 280 nM
KD 7.4/6 (APBP) [8]: 99

B17: ipi.59 Fab (Fab, V domains shown)
VH: B1 VH with H31S
VL: not shown
notes: Tested as monovalent Fab
Kd [6]: 11 nM
kon [6]: 1e+06 M⁻¹ s⁻¹
t1/2 [6]: 63 s
Kd [7]: 21 nM
kon [7]: 810000 M⁻¹ s⁻¹
t1/2 [7]: 41 s
KD 7.4/6 (APBP) [8]: 1.9
ka 6/7.4 [8]: 1.3
t1/2 6/7.4 [8]: 1.5

B18: ipi.71 Fab (Fab, V domains shown)
VH: B1 VH
VL: not shown
notes: Tested as monovalent Fab
Kd [6]: 1.6 nM
kon [6]: 1.5e+06 M⁻¹ s⁻¹
t1/2 [6]: 289 s
Kd [7]: 39 nM
kon [7]: 740000 M⁻¹ s⁻¹
t1/2 [7]: 24 s
KD 7.4/6 (APBP) [8]: 25
ka 6/7.4 [8]: 2
t1/2 6/7.4 [8]: 12.2

B19: ipi.92 Fab (Fab, V domains shown)
VH: B1 VH with T99H
VL: B1 VL with E31D
notes: Tested as monovalent Fab
Kd [6]: 17 nM
kon [6]: 1.8e+06 M⁻¹ s⁻¹
t1/2 [6]: 22 s
Kd [7]: > 1000 nM
KD 7.4/6 (APBP) [8]: > 59

The remaining lines, values ahead:

Kd [6]: 12 nM
kon [6]: 1.6e+06 M⁻¹ s⁻¹
t1/2 [6]: 36 s
Kd [7]: 180 nM
KD 7.4/6 (APBP) [8]: 15
B5: ipi.86 Fab (Fab, V domains shown)
VH: B1 VH with H56N, T99H
VL: not shown
notes: Tested as monovalent Fab

Kd [6]: 6.5 nM
kon [6]: 2e+06 M⁻¹ s⁻¹
t1/2 [6]: 53 s
Kd [7]: 170 nM
KD 7.4/6 (APBP) [8]: 27
B6: ipi.88 Fab (Fab, V domains shown)
VH: B1 VH with T99H
VL: not shown
notes: Tested as monovalent Fab

Cmax (MFI) [3]: 88000 MFI
EC50 [3]: 3.15 nM
Cmax (MFI) [4]: 80200 MFI
EC50 [4]: 4.37 nM
Cmax (MFI) [5]: 62000 MFI
EC50 [5]: 11.5 nM
B8: ipi.106, non-fucosylated IgG1 (antibody, V domains shown)
VH: B1 VH with T99H
VL: B1 VL
modifications: non-fucosylated N-linked glycan
notes: Non-fucosylated full-length human IgG1; also called Ipi.106 IgG1-NF

ratio of KD (7.4/6.0) normalized to the ratio of ipilimumab [9]: 5.1
Kd [10]: 6.5 nM
koff [10]: 0.0062 s⁻¹
kon [10]: 960000 M⁻¹ s⁻¹
Kd [11]: 27 nM
koff [11]: 0.013 s⁻¹
kon [11]: 490000 M⁻¹ s⁻¹
KD 7.4/6 (APBP) [12]: 4.1
ka 6/7.4 [12]: 2
kd 7.4/6 [12]: 2.1
B10: ipi.23 Fab (Fab, V domains shown)
VH: B1 VH with H31S, H56N
VL: not shown
notes: Tested as monovalent Fab

Kd [6]: 4.4 nM
kon [6]: 1.1e+06 M⁻¹ s⁻¹
t1/2 [6]: 144 s
Kd [7]: 28 nM
kon [7]: 820000 M⁻¹ s⁻¹
t1/2 [7]: 30 s
KD 7.4/6 (APBP) [8]: 6.3
ka 6/7.4 [8]: 1.3
t1/2 6/7.4 [8]: 4.7
B11: ipi.69 Fab (Fab, V domains shown)
VH: B1 VH
VL: not shown
notes: Tested as monovalent Fab

ratio of KD (7.4/6.0) normalized to the ratio of ipilimumab [9]: 4.1
Kd [10]: 7.2 nM
koff [10]: 0.006 s⁻¹
kon [10]: 830000 M⁻¹ s⁻¹
Kd [11]: 24 nM
koff [11]: 0.0099 s⁻¹
kon [11]: 420000 M⁻¹ s⁻¹
KD 7.4/6 (APBP) [12]: 3.3
ka 6/7.4 [12]: 2
kd 7.4/6 [12]: 1.7
B13: ipi.24 Fab (Fab, V domains shown)
VH: B1 VH with H31S, H56N
VL: not shown
notes: Tested as monovalent Fab

Kd [6]: 5.2 nM
kon [6]: 1.9e+06 M⁻¹ s⁻¹
t1/2 [6]: 70 s
Kd [7]: 270 nM
KD 7.4/6 (APBP) [8]: 52
B16: ipi.94 Fab (Fab, V domains shown)
VH: B1 VH with H56N
VL: B1 VL with E31D
notes: Tested as monovalent Fab
